In patent US20240309087A1 (SHANGHAI JUNSHI BIOSCIENCES, published 2024):
Where a chain is given by its changes, count along the chain named.

B1: Hu51 (antibody, IgG4, V domains shown)
VH: EVQLVESGGGLVKPGGSLRLSCAASGFTFSSYHMSWVRQAPGKGLELVSAINSNGINTYYLDTVKGRFTISRDNAKNSLYLQMNSLRAEDTAVYYCARHEDYYGFAMDYWGQGTLVTVSS
VL: EIVMTQSPPTLSLSPGERVTLSCKASQSVSNDVAWYQEKPGQAPRLLIYYVSHRFTGIPARFSGSGSGTDFTLTISSLQPEDFAVYYCHQAYRSPWTFGQGTKLEIK
notes: humanized IgG4
B2: Hu3 (antibody, IgG4, V domains shown)
VH: B1 VH with K13Q, S49A, G55D, N74I
VL: B1 VL
notes: humanized IgG4; also called Hu-03
B3: Hu6 (antibody, IgG4, V domains shown)
VH: B1 VH with K13Q, S49A, G55D, N74I
VL: B1 VL with E38Q, H53N, Y87F, H89Q
notes: humanized IgG4; also called Hu-06
B4: Hu9 (antibody, IgG4, V domains shown)
VH: B1 VH with G55D, N74I
VL: B1 VL
notes: humanized IgG4; also called Hu-09
B5: Hu12 (antibody, IgG4, V domains shown)
VH: B1 VH with G55D, N74I
VL: B1 VL with E38Q, H53N, Y87F, H89Q
notes: humanized IgG4
B6: Hu15 (antibody, IgG4, V domains shown)
VH: B1 VH with N52S, S53R, N54D, I56D, N57S, L61P, A97S, Y103F, Y109S
VL: B1 VL
notes: humanized IgG4
B7: Hu21 (antibody, IgG4, V domains shown)
VH: EVQLVESGGGLVKPGGSLRLSCAASGFTFSSYHMSWVRQAPGKGLELVSAISRDGDSTYYPDTVKGRFTISRDDAENSLYLQMNSLRAEDTAVYYCSRHEDYFGFAMDSWGQGTLVTVSS
VL: B1 VL
notes: humanized IgG4
B8: Hu27 (antibody, IgG4, V domains shown)
VH: B7 VH with K13Q, S49A, D74N, E76K
VL: B1 VL
notes: humanized IgG4
B9: Hu54 (antibody, IgG4, V domains shown)
VH: B1 VH
VL: B1 VL with E38Q, H53N, Y87F, H89Q
notes: humanized IgG4
B10: Hu57 (antibody, IgG4, V domains shown)
VH: B1 VH with K13Q, V37I, S49A
VL: B1 VL
notes: humanized IgG4
B11: Hu60 (antibody, IgG4, V domains shown)
VH: B1 VH with K13Q, V37I, S49A
VL: B1 VL with E38Q, H53N, Y87F, H89Q
notes: humanized IgG4
B12: Hu22 (antibody, IgG4, V domains shown)
VH: B7 VH
VL: DIVMTQSPDSLAVSLGERATINCKASQSVSNDVAWYQQKPGQPPKLLIYYVSHRFTGVPDRFSGSGSGTDFTLTISSLQAEDVAVYFCHQAYRSPWTFGQGTKLEIK
notes: humanized IgG4
B13: Hu28 (antibody, IgG4, V domains shown)
VH: B7 VH with K13Q, S49A, D74N, E76K
VL: B12 VL
notes: humanized IgG4
B14: Hu29 (antibody, IgG4, V domains shown)
VH: B7 VH with K13Q, S49A, D74N, E76K
VL: DIQMTQSPSSLSASVGDRVTITCKASQSVSNDVAWYQQKPGKAPKLLIYYVSNRFTGVPSRFSGSGSGTDFTLTISSLQPEDFATYFCQQAYRSPWTFGQGTKLEIK
notes: humanized IgG4
B15: Hu23 (antibody, IgG4, V domains shown)
VH: B7 VH
VL: B14 VL
notes: humanized IgG4
B16: Hu30 (antibody, IgG4, V domains shown)
VH: B7 VH with K13Q, S49A, D74N, E76K
VL: B1 VL with E38Q, H53N, Y87F, H89Q
notes: humanized IgG4
B17: Hu35 (antibody, IgG4, V domains shown)
VH: B7 VH with K13Q, S49A
VL: B14 VL
notes: humanized IgG4
B18: Hu24 (antibody, IgG4, V domains shown)
VH: B7 VH
VL: B1 VL with E38Q, H53N, Y87F, H89Q
notes: humanized IgG4
B19: Hu36 (antibody, IgG4, V domains shown)
VH: B7 VH with K13Q, S49A
VL: B1 VL with E38Q, H53N, Y87F, H89Q
notes: humanized IgG4

Molecular target: T1, human CD112R on Jurkat CD112R effector cells (human, UniProt Q6DKI7 1-326)
T1 sequence (looked up): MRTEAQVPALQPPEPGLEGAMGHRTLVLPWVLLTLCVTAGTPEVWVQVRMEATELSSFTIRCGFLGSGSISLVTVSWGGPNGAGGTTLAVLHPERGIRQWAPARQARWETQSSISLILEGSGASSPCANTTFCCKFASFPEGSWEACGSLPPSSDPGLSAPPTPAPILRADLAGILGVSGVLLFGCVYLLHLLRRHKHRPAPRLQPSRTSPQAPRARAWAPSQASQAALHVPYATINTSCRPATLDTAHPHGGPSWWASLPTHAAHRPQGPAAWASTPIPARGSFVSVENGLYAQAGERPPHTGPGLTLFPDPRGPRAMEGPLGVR
Test: cell-based or functional assay

Binder | EC50, CD112R/CD112 reporter | Relative activity (%), EC50 COM701/EC50 antibody
B1 | 0.0225 µg/mL | 332%
B2 | 0.038 µg/mL | 189%
B3 | 0.0529 µg/mL | 128%
B4 | 0.0385 µg/mL | 195%
B5 | 0.0542 µg/mL | 144%
B6 | 0.0237 µg/mL | 209%
B7 | 0.0285 µg/mL | 179%
B8 | 0.0328 µg/mL | 217%
B9 | 0.0241 µg/mL | 300%
B10 | 1.33 µg/mL | 4.5%
B11 | 0.0225 µg/mL | 261%
B12 | 0.0267 µg/mL | 191%
B13 | 0.0306 µg/mL | 232%
B14 | 0.0272 µg/mL | 230%
B15 | 0.0374 µg/mL | 217%
B16 | 0.034 µg/mL | 184%
B17 | 0.031 µg/mL | 184%
B18 | 0.0485 µg/mL | 167%
B19 | 0.0356 µg/mL | 160%

Molecular target: T2, hCD112R mFC recombinant protein (human; murine, UniProt Q6DKI7 41-160)
T2 construct: range 41-160; expressed in 293E cells; also called hCD112R ECD mFC; hCD112R-ECD-mFC; not shown: murine IgG2a Fc domain (MX2-mFc vector)
T2 sequence (looked up): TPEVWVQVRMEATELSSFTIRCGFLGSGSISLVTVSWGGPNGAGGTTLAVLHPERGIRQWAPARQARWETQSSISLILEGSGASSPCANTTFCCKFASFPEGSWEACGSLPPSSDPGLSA
Test: ELISA, coated hCD112R-ECD-mFC
Outline: (§1)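 Plates coated with hCD112R-ECD-mFC at 1.5 μg/mL; humanized antibodies titrated from 1 μg/mL, 2.5-fold, 12 points. Bound antibody detected with HRP anti-human IgG Fc and TMB, read at 420/620 nm; EC50 from 4PL fit, COM701 and anti-KLH hu-IgG4 as controls.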

Binder | EC50
B1 | 0.00663 µg/mL
B2 | 0.00355 µg/mL
B3 | 0.00271 µg/mL
B4 | 0.00345 µg/mL
B5 | 0.00288 µg/mL
B6 | 0.00451 µg/mL
B7 | 0.0029 µg/mL
B8 | 0.00442 µg/mL
B9 | 0.00631 µg/mL
B10 | 0.00535 µg/mL
B11 | 0.00602 µg/mL
B12 | 0.00425 µg/mL
B13 | 0.00479 µg/mL
B14 | 0.00413 µg/mL
B15 | 0.00436 µg/mL
B16 | 0.00396 µg/mL
B17 | 0.00439 µg/mL
B18 | 0.00429 µg/mL
B19 | 0.0042 µg/mL

Molecular target: T2, hCD112R mFC recombinant protein
Test: ELISA, coated hCD112R-ECD-mFC; EC50 COM701/EC50 antibody
Outline: as §1

Binder | Relative activity (%)
B1 | 138%
B2 | 120%
B3 | 158%
B4 | 114%
B5 | 136%
B6 | 127%
B7 | 229%
B8 | 137%
B9 | 145%
B10 | 171%
B11 | 139%
B12 | 156%
B13 | 127%
B14 | 147%
B15 | 153%
B16 | 153%
B17 | 136%
B18 | 155%
B19 | 142%

Molecular target: T2, hCD112R mFC recombinant protein
Test: FACS competition, hCD112R mFc on CHO CD112 cells
Outline: (§2)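 CHO cells overexpressing human CD112 were co-incubated 30 min at 4 °C with hCD112R mFc (5 μg/mL) and humanized anti-CD112R antibodies (from 100 μg/mL, 3-fold, 10 points). Bound fusion protein detected with anti-mouse IgG Fc secondary by flow cytometry; IC50 from four-parameter fit of MFI. COM701 served as positive control, anti-KLH hu-IgG4 as negative.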

Binder | IC50
B1 | 3.48 µg/mL
B2 | 4.24 µg/mL
B3 | 4.46 µg/mL
B4 | 4.08 µg/mL
B5 | 4.18 µg/mL
B6 | 3.29 µg/mL
B7 | 2.44 µg/mL
B8 | 2.31 µg/mL
B9 | 3.25 µg/mL
B10 | 3.64 µg/mL
B11 | 3.49 µg/mL
B12 | 2.67 µg/mL
B13 | 2.27 µg/mL
B14 | 3.67 µg/mL
B15 | 2.53 µg/mL
B16 | 2.37 µg/mL
B17 | 3.4 µg/mL
B18 | 2.89 µg/mL
B19 | 2.44 µg/mL

Molecular target: T2, hCD112R mFC recombinant protein
Test: FACS competition, hCD112R mFc on CHO CD112 cells; IC50 COM701/IC50 antibody
Outline: as §2

Binder | Relative activity (%)
B1 | 69.2%
B2 | 93.9%
B3 | 89.1%
B4 | 97.5%
B5 | 95.1%
B6 | 109%
B7 | 146%
B8 | 155%
B9 | 74.1%
B10 | 66.2%
B11 | 69%
B12 | 134%
B13 | 157%
B14 | 97%
B15 | 141%
B16 | 151%
B17 | 105%
B18 | 124%
B19 | 146%
